Experimental data published in paper PMC3884669.

Target: Drosophila CstF64 (Drosophila (endogenous in Kc cells)) (UniProt Q86NL1)
Test: co-IP

percent precipitated by the anti-CstF64 antibody: > 10%
Substance: Drosophila Lsm11 (endogenous) (natural protein)
